{
  "source": "patent US20220306757A1",
  "about": "(HANGZHOU SUMGEN BIOTECH, published 2022)",
  "binders": {"B1": {"name": "SG1116 antibody (antibody, human IgG1, V domains shown)", "VH": "QVQLVQSGPELKKPGETVKISCKASGYTFSRYSMNWVRQAPGKGLEWMGRINTGSGAPIYADDFKGRFTFSVDTSASTAYLVINNLKSEDTASYFCSNDYNYSLDHWGQGTAVTVSS", "VL": "DIVLTQSPPSLAMSLGKRATISCRASESVTILGSHLIYWYQQKPGQPPTLLIQLASNVQTGVPARFSGSGSRTDFTLTIDPVEEDDVAVYYCLQSRTIPRTFGGGTKLEIK", "notes": "also called antibody SG1116; SGT116"}, "B2": {"name": "immunoconjugate SG1116-DM1 (antibody, V domains shown)", "VH": "B1 VH", "VL": "B1 VL", "modifications": "maytansine derivative DM1 linked through SMCC; conjugation residues and chain not stated"}},
  "key": {"[1]": {"molecular_target": "T1, BCMA on the surface of human myeloma U266 cells (human, UniProt Q02223 1-184)", "T1 sequence (looked up)": "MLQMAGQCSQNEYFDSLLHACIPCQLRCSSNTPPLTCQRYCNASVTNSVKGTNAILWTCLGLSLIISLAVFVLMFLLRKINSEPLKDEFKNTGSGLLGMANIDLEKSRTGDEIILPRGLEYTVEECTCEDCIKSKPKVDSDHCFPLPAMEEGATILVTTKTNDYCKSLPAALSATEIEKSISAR", "assay": "cell-based or functional assay"}, "[2]": {"molecular_target": "T2, BCMA on CHOS cells stably expressing BCMA (CHOS-BCMA) (UniProt Q02223 1-184)", "T2 sequence (looked up)": "T1 sequence (looked up)", "assay": "cell-based or functional assay"}, "[3]": {"molecular_target": "T1, BCMA on the surface of human myeloma …", "assay": "flow cytometry on U266 cells, PE anti-human IgG detection", "description": "(§1) With human myeloma U266 cells as well as CHOS cells (CHOS-BCMA) stably expressing BCMA constructed by genetic engineering technology as representative cell models, the binding of BCMA on the cell surface to SG1116 was analyzed by flow cytometry. Cells at the logarithmic growth phase were collected, adjusted to a cell density of 5×10⁶ cells/mL, and precooled on ice. The SG1116 antibody was diluted with pre-cooled normal saline containing 2% FBS to 20 μg/ml. 100 μl of cells were taken and added into an equal volume of the above diluted SG1116 antibody, and reacted in dark at 4° C. for 30 min. At the end of the reaction, they were washed twice with pre-cooled normal saline containing 2% FBS (6000 rpm, 45 s). A secondary antibody PE mouse anti-human IgG (BD Pharmingen) was diluted with pre-cooled normal saline containing 2% FBS at a ratio of 1:5. 100 μl of cells were taken and resuspended, and reacted in dark at 4° C. for 30 min. At the end of the reaction, they were washed twice with pre-cooled normal saline containing 2% FBS (6000 rpm, 45 s). The cells were resuspended with 400 μl of 1% (v/v) paraformaldehyde. The binding ability of the antibody to the antigen on the cell surface was analyzed with a flow cytometer (BD Calibur)."}, "[4]": {"molecular_target": "T2, BCMA on CHOS cells stably expressing …", "assay": "flow cytometry on CHOS-BCMA cells, PE anti-human IgG detection", "description": "as §1"}, "[5]": {"molecular_target": "T3, recombinant BCMA-His (ACRO Biosystems) (UniProt Q02223 1-54)", "T3 construct": "also called target antigen BCMA; antigen BCMA; not shown: His tag", "T3 sequence (looked up)": "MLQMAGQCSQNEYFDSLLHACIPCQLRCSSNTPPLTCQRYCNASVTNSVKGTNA", "assay": "ELISA, BCMA-His coated at 1 µg/ml, anti-human IgG HRP detection", "description": "ELISA strips were coated with the target antigen BCMA-His at 1 μg/ml, overnight at 4° C. After washing with PBST, 10% of fetal calf serum was added for blocking at 37° C. for 1 hour. Different concentrations of the antibody SG1116 was added to react at 37° C. for 1 hour. After washing with PBST, horseradish peroxidase-labeled goat anti-human IgG secondary antibody (Goat anti human ([…]), thermo Fisher Scientific) was added to react at 37° C. for 30 minutes. The plate was washed with PBST repeatedly for 5 times, and patted on absorbent paper so as to dry the remaining droplets as much as possible. Each well was added with […] TMB (eBioscience), placed in dark at room temperature (20±5° C.) for 1.5 min. Each well was added with 100 μl of 2N H₂SO₄ stop solution to terminate the reaction of the substrate. The OD values at 450 nm were read with a Microplate reader. The binding ability of the antibody to the target antigen BCMA was analyzed."}, "[6]": {"molecular_target": "T4, TROP2 (Sino Biological Inc.) (UniProt P09758 27-274)", "T4 construct": "Specificity control", "T4 sequence (looked up)": "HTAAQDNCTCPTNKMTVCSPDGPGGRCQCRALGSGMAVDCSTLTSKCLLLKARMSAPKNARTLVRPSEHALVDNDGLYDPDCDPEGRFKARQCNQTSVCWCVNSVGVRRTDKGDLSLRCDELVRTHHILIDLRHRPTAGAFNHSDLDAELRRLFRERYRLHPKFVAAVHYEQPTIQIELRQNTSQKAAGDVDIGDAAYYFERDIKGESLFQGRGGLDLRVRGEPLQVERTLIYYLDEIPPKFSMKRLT", "assay": "ELISA, proteins coated at 1 ug/ml, HRP goat anti-human IgG, OD450", "description": "(§2) ELISA strips were coated with milk (Beijing Biomed Biotech Co., Ltd.), BSA (BOVOGEN), CD19 (Sino Biological Inc.), TROP2 (Sino Biological Inc.), BCMA (ACRO Biosystems), CD47 (Sino Biological Inc.), CD38 (Sino Biological Inc.), Gas6 (R&D) and various proteins as well as AXL (ACRO Biosystems), respectively, at 1 μg/ml, overnight at 4° C. After washing with PBST, 10% of fetal calf serum was added for blocking at 37° C. for 1 hour. The antibody SG1116 was added to react at 37° C. for 1 hour. After washing with PBST, horseradish peroxidase-labeled goat anti-human IgG secondary antibody (Goat anti human (HRP), Thermo Fisher Scientific) was added to react at room temperature for 30 minutes. The plate was washed with PBST repeatedly for 5 times, and patted on absorbent paper so as to dry the remaining droplets as much as possible. Each well was added with 100 μl TMB (eBioscience, #85-00-420), placed in dark at room temperature ([…]) for 1.5 min. Each well was added with 100 μl of 2N H₂SO₄ stop solution to terminate the reaction of the substrate. The OD values at 450 nm were read with a Microplate reader. The binding ability of the antibody to protein was analyzed."}, "AXL (ACRO Biosystems)": {"molecular_target": "T5, AXL (ACRO Biosystems) (UniProt P30530 33-449, limits assumed)", "T5 construct": "Specificity control", "T5 sequence (looked up)": "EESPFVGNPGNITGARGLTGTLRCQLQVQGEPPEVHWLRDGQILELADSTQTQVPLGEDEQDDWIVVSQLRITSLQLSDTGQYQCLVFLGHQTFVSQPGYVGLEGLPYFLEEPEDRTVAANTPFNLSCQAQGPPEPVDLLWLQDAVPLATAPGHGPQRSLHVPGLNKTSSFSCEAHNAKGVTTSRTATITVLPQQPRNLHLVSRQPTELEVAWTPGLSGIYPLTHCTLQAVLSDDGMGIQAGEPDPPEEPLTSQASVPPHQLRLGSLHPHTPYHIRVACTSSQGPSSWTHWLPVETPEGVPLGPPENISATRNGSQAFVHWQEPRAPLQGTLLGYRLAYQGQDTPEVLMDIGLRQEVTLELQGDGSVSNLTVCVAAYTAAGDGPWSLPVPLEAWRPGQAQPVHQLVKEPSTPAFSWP", "assay": "ELISA, proteins coated at 1 ug/ml, HRP goat anti-human IgG, OD450", "description": "as §2"}, "[7]": {"molecular_target": "T6, CD47 (Sino Biological Inc.) (UniProt Q08722 19-139)", "T6 construct": "Specificity control", "T6 sequence (Q08722 19-139 limits assumed)": "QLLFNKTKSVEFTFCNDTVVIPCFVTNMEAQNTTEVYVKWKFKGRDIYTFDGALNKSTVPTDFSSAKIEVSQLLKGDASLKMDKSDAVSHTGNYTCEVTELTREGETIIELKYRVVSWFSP", "assay": "ELISA, proteins coated at 1 ug/ml, HRP goat anti-human IgG, OD450", "description": "as §2"}, "[8]": {"molecular_target": "T7, CD38 (Sino Biological Inc.) (UniProt P28907 43-300)", "T7 construct": "Specificity control", "T7 sequence (looked up)": "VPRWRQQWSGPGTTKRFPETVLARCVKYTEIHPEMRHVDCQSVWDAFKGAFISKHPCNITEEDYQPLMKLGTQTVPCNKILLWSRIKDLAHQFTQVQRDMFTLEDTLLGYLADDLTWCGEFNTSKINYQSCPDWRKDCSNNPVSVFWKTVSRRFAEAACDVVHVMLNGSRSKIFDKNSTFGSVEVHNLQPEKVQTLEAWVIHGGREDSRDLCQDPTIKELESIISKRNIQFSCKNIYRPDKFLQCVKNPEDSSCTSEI", "assay": "ELISA, proteins coated at 1 ug/ml, HRP goat anti-human IgG, OD450", "description": "as §2"}, "Gas6 (R&D)": {"molecular_target": "T8, Gas6 (R&D) (UniProt Q14393 49-678, limits assumed)", "T8 construct": "Specificity control", "T8 sequence (looked up)": "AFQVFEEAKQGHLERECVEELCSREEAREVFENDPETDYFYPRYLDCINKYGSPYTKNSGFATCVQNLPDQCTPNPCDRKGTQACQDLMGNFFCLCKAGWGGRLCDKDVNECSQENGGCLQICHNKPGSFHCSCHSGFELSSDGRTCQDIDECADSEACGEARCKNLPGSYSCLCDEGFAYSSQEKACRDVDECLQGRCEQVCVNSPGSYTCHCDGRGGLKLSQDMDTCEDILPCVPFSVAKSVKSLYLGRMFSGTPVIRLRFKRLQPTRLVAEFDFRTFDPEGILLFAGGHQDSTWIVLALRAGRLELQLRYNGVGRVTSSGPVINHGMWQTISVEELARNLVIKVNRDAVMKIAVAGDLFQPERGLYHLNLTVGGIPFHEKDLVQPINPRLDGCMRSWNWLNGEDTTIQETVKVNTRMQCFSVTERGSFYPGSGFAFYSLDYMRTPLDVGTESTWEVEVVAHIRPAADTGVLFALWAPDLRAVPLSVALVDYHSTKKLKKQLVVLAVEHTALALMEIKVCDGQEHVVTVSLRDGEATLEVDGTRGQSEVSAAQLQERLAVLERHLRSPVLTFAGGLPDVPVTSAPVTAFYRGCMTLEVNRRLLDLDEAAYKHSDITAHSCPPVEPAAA", "assay": "ELISA, proteins coated at 1 ug/ml, HRP goat anti-human IgG, OD450", "description": "as §2"}, "BSA (BOVOGEN)": {"molecular_target": "T9, BSA (BOVOGEN) (UniProt P02769 25-607)", "T9 construct": "Specificity control", "T9 sequence (P02769 25-607 limits assumed)": "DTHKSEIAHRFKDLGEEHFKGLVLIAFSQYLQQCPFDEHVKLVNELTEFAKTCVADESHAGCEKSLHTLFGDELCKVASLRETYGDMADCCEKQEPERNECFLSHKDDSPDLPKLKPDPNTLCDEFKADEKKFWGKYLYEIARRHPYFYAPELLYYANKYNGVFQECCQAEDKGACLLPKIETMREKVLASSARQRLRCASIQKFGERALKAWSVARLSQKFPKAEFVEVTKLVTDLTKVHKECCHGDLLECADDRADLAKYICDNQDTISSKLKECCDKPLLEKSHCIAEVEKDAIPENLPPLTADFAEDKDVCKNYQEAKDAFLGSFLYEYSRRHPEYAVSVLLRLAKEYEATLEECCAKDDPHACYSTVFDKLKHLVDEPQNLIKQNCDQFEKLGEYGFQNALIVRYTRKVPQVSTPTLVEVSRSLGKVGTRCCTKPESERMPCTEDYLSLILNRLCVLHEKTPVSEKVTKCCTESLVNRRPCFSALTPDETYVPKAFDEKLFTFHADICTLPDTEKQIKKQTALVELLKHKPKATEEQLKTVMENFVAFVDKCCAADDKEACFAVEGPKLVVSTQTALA", "assay": "ELISA, proteins coated at 1 ug/ml, HRP goat anti-human IgG, OD450", "description": "as §2"}, "[9]": {"molecular_target": "T10, CD19 (Sino Biological Inc.) (UniProt P15391 20-291)", "T10 construct": "Specificity control", "T10 sequence (looked up)": "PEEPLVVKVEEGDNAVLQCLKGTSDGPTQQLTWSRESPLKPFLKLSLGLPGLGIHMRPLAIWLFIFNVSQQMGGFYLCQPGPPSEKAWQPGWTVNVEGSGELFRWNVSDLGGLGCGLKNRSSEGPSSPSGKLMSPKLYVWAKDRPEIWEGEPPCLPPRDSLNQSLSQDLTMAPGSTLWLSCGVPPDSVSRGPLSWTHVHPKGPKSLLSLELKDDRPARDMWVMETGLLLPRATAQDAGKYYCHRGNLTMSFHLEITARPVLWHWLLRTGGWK", "assay": "ELISA, proteins coated at 1 ug/ml, HRP goat anti-human IgG, OD450", "description": "as §2"}, "[10]": {"molecular_target": "T3, recombinant BCMA-His (ACRO Biosystems)", "assay": "SPR (BIACORE), antibody captured by anti-human IgG, BCMA as mobile phase 0.15625-20 nM", "description": "The antibody affinity was analyzed with BIACORE biomacromolecular interaction analyzer (GE Co.). Anti-human IgG antibodies (purchased from GE) were coupled on a chip, and utilized to capture the SG1116 antibody, of which the concentration was set as 3 μg/mL, and the sampling time was 120 seconds; with the antigen BCMA as the mobile phase, a gradient of 8 concentrations (0.15625, 0.3125, 0.625, 1.25, 2.5, 5, 10, 20 nM) was used, and the binding time was 120 seconds; the dissociation time was 300 seconds; each antibody was regenerated using 3 M of magnesium chloride (purchased from GE) for a time period of 30 seconds."}},
  "data": [
    {"binder": "B1", "values": [
      {"measurement": "internalization efficiency EC50 (flow cytometry, surface MFI at 4°C against 37°C)", "setting": "[1]", "result": 0.178, "unit": "µg/mL"},
      {"measurement": "internalization efficiency EC50 (flow cytometry, surface MFI at 4°C against 37°C)", "setting": "[2]", "result": 0.00327, "unit": "µg/mL"},
      {"measurement": "EC50", "setting": "[3]", "result": 4.29, "unit": "µg/mL"},
      {"measurement": "EC50", "setting": "[4]", "result": 0.622, "unit": "µg/mL"},
      {"measurement": "EC50", "setting": "[5]", "result": 0.0565, "unit": "µg/mL"},
      {"measurement": "binding result", "setting": "[6]", "result": "no binding"},
      {"measurement": "binding result", "setting": "AXL (ACRO Biosystems)", "result": "no binding"},
      {"measurement": "binding result", "setting": "[7]", "result": "no binding"},
      {"measurement": "binding result", "setting": "[8]", "result": "no binding"},
      {"measurement": "binding result", "setting": "Gas6 (R&D)", "result": "no binding"},
      {"measurement": "binding result", "setting": "BSA (BOVOGEN)", "result": "no binding"},
      {"measurement": "binding result", "setting": "[9]", "result": "no binding"},
      {"measurement": "Kd", "setting": "[10]", "result": 1.39, "unit": "nM"},
      {"measurement": "koff", "setting": "[10]", "result": 0.0171, "unit": "s⁻¹"},
      {"measurement": "kon", "setting": "[10]", "result": "1.23e+07", "unit": "M⁻¹ s⁻¹"}
    ]},
    {"binder": "B2", "values": [
      {"measurement": "IC50 of inhibition of proliferation (CCK-8, 72 hours)", "setting": "[1]", "result": 0.347, "unit": "nM"}
    ]}
  ]
}
